Assay: soluble on expression in E. coli; label from the status in PepcDB or PDB records

Row | Sequence | soluble on expression in E. coli
1 | MAHHHHHHMGTLEAQTQGPGSMSEPLLLQDRDERGVVTLTLNRPQAFNALSEAMLAALGEAFGTLAEDESVRAVVLAASGKAFCAGHDLKEMRAEPSREYYEKLFARCTDVMLAIQRLPAPVIARVHGIATAAGCQLVAMCDLAVATRDARFAVSGINVGLFCSTPGVALSRNVGRKAAFEMLVTGEFVSADDAKGLGLVNRVVAPKALDDEIEAMVSKIVAKPRAAVAMGKALFYRQIETDIESAYADAGTTMACNMMDPSALEGVSAFLEKRRPEWHTPQPSTA | soluble
2 | MNNVIIIGGGIAGLCAAISLQKIGLDVKVYDKNTEPTVAGAGIIIAPNAMQALELYGISKKIKKFGNESDGFNLVSKKGTTFNKLIIPTCYPKMYSIHRKDLHQLLLSELKEDTVKWGKECVKIEQNEENALKIVFQDGSEALGNILIAADGIHSIVRKQVTQGDNYRYAGYTCWRGVTPTKNLSLTNDFIETWGTNGRFGIVPLPNNEVYWYALINAKARDPKYKAYTTTDLYNHFKTYHNPIPSILQNASDIDMIHRDIIDITPMKQFFDKRIVFIGDAAHALTPNLGQGACQAIEDAIILAECIKNNAYYRQAFTEFEQKRRDRIEKISNTAWKVGKIAQIESKPLTIVRNKVMKRIPKWISERQAHELYRFHL | not soluble
3 | MGSDKIHHHHHHMGKLCSFLEKHKRSFPIGLSGNTGMGYILTGGISPLSRSKGLAIDQIIEIKGFWGNGKEFHLLRPNTKNELTNEWKALCGAAIFLGIITQVKLKTQPLRPLLSWTANLSFSELSECINQAESWPNSLSLQWIYGDDIFAHAIGEIKNTDDESVMIKLLEKLPFSRNRIINKFNNMKSLPNLSFGNNNNYNNSNHSEVLGLLGPAWQEKNKQVLKILKELINKRPNKSCYIASQQLGGLTHLNDLDTSFIHRDAIWKPWINGAWEAHNQAKRKRTLEWMTECWNNLEFICPGVHLAQIHPHLEWHKKELSSAFEDWLPNLEELKAIHDPRNIMPPLK | not soluble
4 | MSVGYDRLKTSSLAELRAAIRSGAYRSHTAGLGQGYLQANLAILPEAYALDFMRYCQRNPKPCPLIGVSDTGNPMMFTLGRDIDIRTDVPAYNVYRDGRLDSVSADITEDWRDDLVVFALGCSFTFEHAVMRAGVALWHVDNDRTVPMFRSNIETVPAGPFSGKMVVSMRAVPEDRVAEVAEISRAYPLAHGAPVYWGDPAGLGIADIMSPDWGDPAPLGPGEVPMFWACGVTPQVAIEAARLPLCITHKPGHMLITDVAEDAEVPVVETAQDKRLEHHHHHH | soluble
5 | MTEPKEERRERRMSSPIMPENMSDFDLIVGEIEAENGAEGSFQRAAECFKLIEDRVSEDPDLSEIMENIRMNQGCEVSGMSTGLSSTATTVSSKMASQWISHMKRSFKRRAICLSEEQQSAMRKMVTEELYTQHGPADLAVRDILLLYSRGLEAHHDGRYREMFERLRPCIPYFNTNVLVWIRISEALIYEYYEETWEFNDIYDRLFEKQPHHYMPSVRRRCNEMRPRHPDMTLRFAETATLMCFALAKQSSREPVHYAAAALHGFMLLKLRKYSEAIEAVNFAVERYDRAGEWQDDLAILLTYKAEGMIGIGRYNRAIEYALRVMNAAKCARARQRATMLVVMAYMRKRNYLKAHEYVIKLLKEGKLDEVMLENVALLGLNLAHLMGNMKLFKRFESMLQRIVY | not soluble
6 | MSNNNSGSSNQLLVRGAEQALDQMKYEIAQEFGVQLGADATARANGSVGGEITKRLVSLAEQQLGGGVTR | soluble
7 | MGERFYLYDDTVEAAVRFVSFVGERQRFDLALIETDRFYGKWLVLDLQSNRFAILGRDDLEEPGYIEHAYQLHEQDANDLRAFLEEYLS | not soluble
8 | MGSDKIHHHHHHMDEALAHANGETPAVGDYMTRDVATVSADDTVSDVAARISESDHNGFPVTDGRHVEGFVSARDLLLADPDELLFKVMTEDLVVAHPEMDVTDAARVILRSGIQKLPVVDDAGNLVGIITNADVIRSQIERATPEKVGKLMRTLETIHGVSITEERRTVTISDVVPTQGKVYADELEGRRYELENGLAEPLVVIDNGSTGDDGSLLLADGHHRVMAAERAGVAEMDAYVIVLERAVDLGMARTARTEGLDSIADIDVVDYARHPLVETIERLQ | not soluble
9 | MSLDRYLGFANSNLGRRLVDALGLPRPAPLERWQAGRLRPVEGALVLGGGPLAKQVEAIAPRLTDEVYSFNADNLQAEAWVAGLGPKIKAVVFDASHLSDSDALKQLREFFQPLLRSLAPCAHVLVLGRAPEGLDDPLASVAQRALEGFSRSLAKELRNGATAQLLYVAPGAEDQLEGALRFFLSPKSAFISGQVLRLQGCTSQVEDWTRPLGGRRALVTGAARGIGAAIAETLARDGADVLLLDVPQASKDLDALAARLGGKALPLDICASDAATQLLAALPDGIDIVVHNAGITRDKTLVNMTPEYWDAVLAVNLKAPQVLTQALYDNGALGENARITLLASVSGIAGNRGQANYAASKAGLIGLAQAWAPRLAERGGSINAIAPGFIETHMTAAMPMGLREAGRRLSSLGQGGSPQDVAEAIAWLSQPGSGSVNGQVLRVCGQALMGAEGHHHHHH | soluble
10 | GPGSMPRGAIPTGQDWEEQRFNFQQRGSGGSAQPRKVTERDANRAMQSGQNVQVQRKEHQRFNQQTVSAGANAKKLDEDNETLKVKKVDPHLRVRIMKERQALNWSQQDLAQRISERVSVVAEYESGKAVQEERVIVKMEKALGVHLRGAKAGEPMGKTRPAPKAQE | soluble
11 | RMSEQSICQARAAVMVYDDANKKWVPAGGSTGFSRVHIYHHTGNNTFRVVGRKIQDHQVVINCAIPKGLKYNQATQTFHQWRDARQVYGLNFGSKEDANVFASAMMHALEVLNS | soluble
12 | MGSDKIHHHHHHMKSFQLVATAASGLEAIVGKEVARLGYDPKVENGKVYFEGDLSAIARANLWLRVADRVKIVVGVFKATTFDELFEKTKALPWEDYLPLDAQFPVAGKSVKSTLYSVPDCQAIVKKAIVNRVSEKYRRSGRLMETGALFKLEVSILKDEVTLTIDTSGAGLHKRGYRLAQGSAPIKETMAAALVLLTSWHPDRPFYDPVCGSGTIPIEAALIGQNIAPGFNREFVSETWDWMPKQVWADARQEAEDLANYDQPLNIIGGDIDARLIEIAKQNAVEAGLGDLITFRQLQVADFQTEDEYGVVVANPPYGERLEDEEAVRQLYREMGIVYKRMPTWSVYVLTSYELFEEVYGKKATKKRKLYNGYLRTDLYQYWGPRKPRPKKED | not soluble
13 | MHAFPLTLDNRLAEALPLWRNLARTDRAPRRNIDLADWKADWRELIAALDRFSRSHGYRQPFAAQGHAALENAWAWGQAAENASTLLLKAIDRGLAGAELRSIYLETAALWLDYSRLLGAARDSLREQGEVDFETAPALAPRTGQYPFALQLLAMGVLLDAQELIPALVEEVLQFDTDRLLDYLGAAALGLTSASEETFHPRPFGQLRAFFEEADGSDAQALAPYLQSQYREFFQLSPKAQKKTRRLTGPYAWGWWAMEVSALGVLYGWDDGVLRASPHYLGDLVDYARARGDA | soluble
14 | MIKLAPAGLKDDIEMRKVYAGFIAGQIEAGSPIIALEADLMSSMAMDSVARDYPQHVINCGIMEANVIGTAAGLALTGRKPFVHTFTAFASRRCFDQLFMALDYQRNNVKVIASDAGVTACHNGGTHMSFEDMGIVRGLAHSVVLEVTDAVMFADILRQLMDLDGFYWLRTIRKQARSIYAPGSTFTIGKGNVLREGDDITLIANGIMVAEALEAARQLEQEGVSAAVIDMFTLKPIDRMLVKNYAEKTRRIVTCENHSIHNGLGSAVAEVLVENCPVPMRRVGVKERYGQVGTQDFLQKEYGLTAEAIVEAAKSLL | not soluble
15 | MAHHHHHHMAILYNRITGLKDSVYGEGLQCRILGLDEIKVFNIRIRPRVLKTMTGTKDLQMVNISLRVLFRPQTDRLPQIYREFGMDYDERILPSISNEILKAVVAEYKAEELIQKRDVVSARIYQLMQSKVSQFGLVLEDLSLVDIQFGKEFMVAVEQKQVAQQEAERFRYVVLENEQKRRAAVVRAEGEAESARLISEAIQRSGGGLLELRRIEAAVDIASKLIPMRNVTFLPGGSNMLLHMKSHQASEQAH | not soluble
16 | MVPNDVFQKLLYDLFCMWHGVQRHYDPPIPDSEEQRMQKVKNLICKLLTEIDGRVNRIKQNNNHQRGQDFYEEWTMLTWNVLCITNRLQNSLSQVVVSNEDKMIYSRLNQALVELVNYSRDFLPFPSTNEMDPEYVMLRDKMNQTMMSLHGLYRQMNSAMYQTPDDVENFRIHLQTFGDDILVPCLEQYKTFCNKNCMALWQQVRLVQVERMRDQVKDQGCSIENLVSFYSNMTYVLAVLGARLQGFRYDLTVNKKFFNFDPVVHMSEAVFAALELLMSNCVLATEPSTSAILVTNNLFAMNCGALARGVVFKDFEIQVVSEETAEHIQSEMSRQRLLQHPAPIGNVPSAALLAMKPTTGTKRSNAASNSDSANNTAHKKSDVNSKESVIIYPVYNSKNRYWAATYPHLLCTTRQKGRQSIHSSYQDLSPSGTNSSASNDKNGSGKRPIFYFHIKATMFSPSGRFATAHTLSLPFTIATRRNQDCQVQRMMSSYTATIFWLYGCNTQDGLLLQWIDGGMHWDHFKHLFKQHFKLLKYKLQCPDCCSGQDGARVNGVQQIVTFKNVLCPHLRYECNSTNVRFSVWRGMLELLQIFHDTRNNVRKLWEMGFLMGFMEFEEVDNMLEKHKSALIMRLSFVTGGTICFTVKSLAHTLDPRSSRPIHLEPLDLKRLQQKCLKDYLRDIADAEKVKYILTANEEVINIESLLESLKELGVKPENPSESREISSNITHMGDIDTMQHIKFTAMRIAVVTCKVKPPSADQEENDANGLNRLQATLGTRDDDFLRDFVQLANAYGKSKQDLYEALDFINDQYQPGPIRKTSSIYDSSHHIPLAPAPIARNMGPTMISPPPAKVRPPAVDTYPRSSQFELVRSDSDHLPPSNTMMRVSCSPPKPPSQLPSPNQTTIPHMYNNGIPMIYEHHQQQRFDY | not soluble
17 | SLSHRTDGSLLFPLSLVHINDIHAHWEEIDTASVTCDPKRDGAAEQCLGGYARTVTIVRQLLQERPNPVYLNIGDNFQGTLWYNIHRWNATAFFLNLLPADAVTVGNHEFDDGIAGVVPFLEAIQSPVLLVNVDNSKEPSFSKFRPSMVLERAGRKIGLIGVILRTTYNMADTGALVFEDEAETVRLEADRLAAEGVDIVVVLSHCGLDVDHIIAANAGPNVDIIVGGHSHSFLYSGQNDKIPMTPASEYPTVVNQPDGHRVLIVQASAYTKLVGDIVLYFDDQGIVQHWEGNPIYLSNDIVPDAEVLEAIAPWKVAIDAVGERTIGATAVDLLKPPCNFGECVLGNLIADSMVEAFVPMAEEGSWTYASIAAIAVGRIRQSLVPGDISFKHLIEVLPFENKLVCLELRGFQLVGLLEHGAELSWDEHRFNAKNLMHVSGLRVVYNVTNPIGHRVLSVEALCQDCSMPSYAPVEMFKMYRVVTVSYLAEGGDGFEIFPRYGRNRVVAPMDDVQAFEEYVKPRSPVAPVLEERIQILN | not soluble
18 | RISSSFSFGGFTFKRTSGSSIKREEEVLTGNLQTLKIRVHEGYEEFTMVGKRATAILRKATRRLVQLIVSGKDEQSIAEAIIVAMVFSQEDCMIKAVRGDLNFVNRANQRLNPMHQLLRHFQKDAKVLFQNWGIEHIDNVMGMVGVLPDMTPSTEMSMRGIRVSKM | soluble
19 | MSSGVMVDPDVQTSFQKLSEGRKEYRYIIFKIDENKVIVEAAVTQDQLGITGDDYDDSSKAAFDKFVEDVKSRTDNLTDCRYAVFDFKFTCSRVGAGTSKMDKIIFLQICPDGASIKKKMVYASSAAAIKTSLGTGKILQFQVSDESEMSHKELLNKLGEKYGDH | not soluble
20 | SLRQIRTVIQYQTVRYDILPLSPVSRNRLAQVKRKILVLDLDETLIHSHHDGVLRPTVRPGTPPDFILKVVIDKHPVRFFVHKRPHVDFFLEVVSQWYELVVFTASMEIYGSAVADKLDNSRSILKRRYYRQHCTLELGSYIKDLSVVHSDLSSIVILDNSPGAYRSHPDNAIPIKSWFSDPSDTALLNLLPMLDALRFTADVRSVLSRNLHQHRLW | soluble
